Experimental data published in US10753947B2, “Methods for screening voltage-gated proteins” (D.E. Shaw Research, LLC, priority 2012, dated 2020).
Changes are numbered by the printed parent chain. Read-outs that look alike come from different tables or passages of the source.

How the values were obtained:
[1] = test system: KV2.1 wild-type base construct (hKv2.1-m7-c3); experiment: Alpha currents (Iα) of Kv2.1 WT base construct in Xenopus oocytes, two electrode voltage-clamp; type: cell-based, human; settings: 1 nM AgTx2, WT
Experimental: The coding cDNAs of KV2.1 “wild-type” (hereinafter WT) base construct (hKv2.1-m7-c3 is human Kv2.1, residues 1-858, mutated to confer AgTx2 sensitivity and to remove extracellular cysteine residues) was synthesized (Entelchon GmbH) and cloned into the high expression vector pBSTA.
Transcripted cRNA was produced using the mMessage mMachine kit (Ambion Inc.). Two to four days past injection of cRNA into stage V-VI Xenopus oocytes (NASCO) potassium currents through the alpha pore (Iα) were recorded with the two electrode voltage-clamp technique making use of a TURBO TEC-05× amplifier (npi electronic GmbH). Currents were filtered at 10 kHz and sampled at 20 kHz. The bath solution contained (in mM): NaCl 96, KCl 2, CaCl2 1, MgCl2 1 and HEPES 5 (pH 7.5). Voltage-recording and current-injecting microelectrodes were filled with 3 M KCl and pulled to have resistances between 0.2 and 1 MΩ (see Stork et al., 2007). The pClamp software package v.10.1 (Molecular Devices, Inc.) was used for data acquisition and analysis.
For recording of alpha currents (Iα), 100 ms pulses were applied from ˜60 to +60 mV in 10 mV steps at 1 Hz from a holding potential of ˜80 mV to the Kv2.1 channel constructs to measure alpha currents (Iα). Passive leak currents were subtracted online using a P/4 procedure: pClamp software generates a series of scaled-down replica sweeps of the main stimulus waveform. […]

Kv1.3 = Kv1.3 (Homo sapiens, UniProt P22001); settings: cited from earlier work
[2] = molecular target: T1, Kv2.1 T359S K360G A366D S367A I383M Y384T K386V (Homo sapiens, UniProt Q14721, A366D/I383M/K360G/K386V/S367A/T359S/Y384T); settings: Table 5; read-out: IC50, channel Kv2.1 T359S K360G A366D S367A I383M Y384T K386V; cited from earlier work
T1 sequence (Q14721 1-858 T359S/K360G/A366D/S367A/I383M/Y384T/K386V): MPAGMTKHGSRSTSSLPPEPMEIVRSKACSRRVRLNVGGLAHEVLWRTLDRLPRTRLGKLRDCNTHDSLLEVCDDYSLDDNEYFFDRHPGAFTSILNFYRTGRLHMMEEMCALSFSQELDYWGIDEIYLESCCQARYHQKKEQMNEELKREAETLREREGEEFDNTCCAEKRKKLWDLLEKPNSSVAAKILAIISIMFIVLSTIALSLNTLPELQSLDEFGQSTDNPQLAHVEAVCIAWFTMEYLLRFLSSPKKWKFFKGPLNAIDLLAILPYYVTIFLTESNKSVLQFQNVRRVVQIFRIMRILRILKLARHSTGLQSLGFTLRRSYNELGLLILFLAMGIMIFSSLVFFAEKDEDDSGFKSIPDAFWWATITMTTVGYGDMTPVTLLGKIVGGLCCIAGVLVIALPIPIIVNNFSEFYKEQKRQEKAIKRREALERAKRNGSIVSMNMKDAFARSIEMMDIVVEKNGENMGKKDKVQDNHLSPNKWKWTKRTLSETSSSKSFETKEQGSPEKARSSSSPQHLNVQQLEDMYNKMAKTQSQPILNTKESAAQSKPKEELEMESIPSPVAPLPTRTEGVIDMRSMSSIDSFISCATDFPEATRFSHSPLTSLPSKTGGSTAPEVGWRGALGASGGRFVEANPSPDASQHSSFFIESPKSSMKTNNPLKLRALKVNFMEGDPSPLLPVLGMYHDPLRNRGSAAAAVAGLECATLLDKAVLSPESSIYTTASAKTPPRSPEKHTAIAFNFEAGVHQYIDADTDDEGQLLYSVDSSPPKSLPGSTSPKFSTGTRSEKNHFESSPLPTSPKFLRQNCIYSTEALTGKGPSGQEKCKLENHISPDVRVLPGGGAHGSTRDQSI

[3] = molecular target: T2, Kv2.1 channel in pancreatic β-cells (Homo sapiens, UniProt Q14721); settings: cited from earlier work
T2 construct: host or cells: pancreatic β-cells (endogenous channel)
T2 sequence (Q14721 1-858): T1 sequence (Q14721 1-858 T359S/K360G/A366D/S367A/I383M/Y384T/K386V) with S359T, G360K, D366A, A367S, M383I, T384Y, V386K

Sequence of Kv1.3 (P22001 whole entry): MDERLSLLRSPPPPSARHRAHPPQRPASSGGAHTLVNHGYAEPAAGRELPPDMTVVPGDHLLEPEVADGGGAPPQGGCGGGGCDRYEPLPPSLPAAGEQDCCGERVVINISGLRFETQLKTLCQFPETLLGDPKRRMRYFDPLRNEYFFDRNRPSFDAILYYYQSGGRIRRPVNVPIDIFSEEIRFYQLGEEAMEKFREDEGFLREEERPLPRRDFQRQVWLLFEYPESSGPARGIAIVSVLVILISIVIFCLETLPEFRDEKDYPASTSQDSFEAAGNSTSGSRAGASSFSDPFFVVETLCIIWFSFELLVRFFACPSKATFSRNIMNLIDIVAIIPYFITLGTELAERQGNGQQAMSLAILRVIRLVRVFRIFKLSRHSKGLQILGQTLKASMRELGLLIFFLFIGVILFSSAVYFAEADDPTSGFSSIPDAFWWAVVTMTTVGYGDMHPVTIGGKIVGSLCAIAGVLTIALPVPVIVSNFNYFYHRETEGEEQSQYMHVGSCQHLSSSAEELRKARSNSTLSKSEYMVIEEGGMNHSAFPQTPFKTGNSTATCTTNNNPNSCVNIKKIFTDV

Substance | Mean inhibition of the maximal outward current at +60 mV [1] | IC50 (Kv1.3; Table 3, read-out: IC50 Values of Kv1.3 ion channel modulating agent) | IC50 (Kv1.3; Table 5, read-out: IC50, channel Kv1.3) | Sensitivity of Kv1.3 to the scorpion toxin (Kv1.3; text b541) | IC50 [2] | IC50, channel Kv1.3 (Kv1.3; Table 5, result in words) | Inhibits the Kv2.1 channel in pancreatic β-cells [3]
Agitotoxin-2 (GVPINVSCTGSPQCIKPCKDAGMRFGKCMNRKCHCTPK) [AgTx2] | 66.5±2.9% | 4 pM | 4 pM | sensitive | 7 pM |  | 
Guangxitoxin (EGECGGFWWKCGSGKPACCPKYVCSPKWGLCNFPMP) [GxTx-1E] |  |  |  |  | ~2000 pM | No effect | nanomolar range
